These are literature values, as cited in paper PMC12528258.

Read-outs that look alike come from different tables or passages of the source.

Data set [1] concerns the target H3K9me3 tail tail (Homo sapiens) (UniProt P68431).
For data set [2] the target is unchanged. This is another data set of the same source.
The target is the same in data set [3]. The source holds these as a separate data set.
The target is the same in data set [4]. The source holds these as a separate data set.

Sequence of HP1α (P45973 whole entry): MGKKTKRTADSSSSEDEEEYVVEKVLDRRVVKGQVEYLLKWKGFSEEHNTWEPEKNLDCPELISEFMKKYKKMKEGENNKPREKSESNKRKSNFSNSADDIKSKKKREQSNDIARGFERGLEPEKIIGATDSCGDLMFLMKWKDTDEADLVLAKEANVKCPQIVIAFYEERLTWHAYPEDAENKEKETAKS
Sequence of HP1β (P83916 whole entry): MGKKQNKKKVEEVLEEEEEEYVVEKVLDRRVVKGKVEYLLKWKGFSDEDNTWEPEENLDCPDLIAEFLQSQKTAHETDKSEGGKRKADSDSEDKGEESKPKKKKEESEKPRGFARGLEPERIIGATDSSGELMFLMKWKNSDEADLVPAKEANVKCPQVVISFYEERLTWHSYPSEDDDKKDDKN
Sequence of HP1γ (Q13185 2-183): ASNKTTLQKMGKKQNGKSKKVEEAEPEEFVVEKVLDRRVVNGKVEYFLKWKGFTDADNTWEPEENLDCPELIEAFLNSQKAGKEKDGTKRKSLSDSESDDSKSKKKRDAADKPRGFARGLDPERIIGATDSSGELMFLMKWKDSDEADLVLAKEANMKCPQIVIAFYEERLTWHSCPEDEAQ

As for HP1α (from UniProt P45973), the Kd in data set [1] was 8.3 µM; in data set [2] it was 35 µM. In the case of HP1β (from UniProt P83916), the dissociation constant (Kd) in data set [3] is 5.8 µM. Regarding HP1γ (from UniProt Q13185), the Kd in data set [4] is 12 µM.
